{"source": "paper PMC10783487", "molecular_target": "T1, TbrCan2 E341A E341A (Thermoanaerobacter brockii subsp. finnii Ako-1 DSM 1457) (UniProt E8URK0)", "T1 sequence": "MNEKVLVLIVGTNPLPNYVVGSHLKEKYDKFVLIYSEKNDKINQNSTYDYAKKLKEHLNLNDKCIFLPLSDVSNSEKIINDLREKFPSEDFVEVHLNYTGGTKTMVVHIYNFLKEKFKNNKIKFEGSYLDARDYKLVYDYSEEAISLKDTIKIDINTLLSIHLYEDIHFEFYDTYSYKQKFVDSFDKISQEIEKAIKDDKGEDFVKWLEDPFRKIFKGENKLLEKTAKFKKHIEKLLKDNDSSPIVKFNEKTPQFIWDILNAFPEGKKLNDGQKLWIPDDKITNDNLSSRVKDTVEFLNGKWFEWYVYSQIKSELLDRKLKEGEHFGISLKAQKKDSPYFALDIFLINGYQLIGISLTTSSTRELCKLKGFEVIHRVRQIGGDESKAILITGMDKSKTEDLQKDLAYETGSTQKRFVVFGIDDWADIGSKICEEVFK", "assay": "EMSA", "data": [{"substance": "ssRNA substrate", "values": [{"measurement": "Kd", "result": 240, "unit": "nM"}]}]}
